Test results taken from patent US20260209385A1 (ANALYTICAL BIOSCIENCES SHANGHAI, published 2026).

Assays:
[1] = biological target: T1, hCD3 antigen on Jurkat clone E6-1 cells (human); assay: flow cytometry on Jurkat cells, FITC anti-human IgG Fc, median fluorescence, 4-parameter fit
T1 construct: whole, on cells; also called human CD3; hCD3 (Jurkat cell)
Protocol: (§1) Serially diluted antibodies or bispecifics were then added, with a maximum final concentration of 1000 nM and 3-fold dilution using PBS buffer. After incubating on ice for 30 mins, the plates were washed two times with FACS buffer (PBS buffer with 0.5 mg/ml BSA, 0.02% tween) and incubated with FITC anti-human IgG antibody (Goat Anti Human (IgG Fc) secondary antibody FITC, Abcam #ab97224, 1:1000) on ice for 30 mins, followed by two times wash with FACS buffer. […] Data were analyzed with GraphPad Prism. Median fluorescent intensity was plotted versus antibody concentration and EC50 was calculated by fitting the curve with the function of log (agonist) vs. response—Variable slope (four parameters).

[2] = biological target: T2, hCCR8 antigen on hCCR8-transfected 293T cells (human, UniProt P51685 1-355); assay: flow cytometry on hCCR8-transfected 293T cells, FITC anti-human IgG Fc, median fluorescence, 4-parameter fit
T2 construct: whole, on cells; also called human CCR8
T2 sequence (P51685 whole entry): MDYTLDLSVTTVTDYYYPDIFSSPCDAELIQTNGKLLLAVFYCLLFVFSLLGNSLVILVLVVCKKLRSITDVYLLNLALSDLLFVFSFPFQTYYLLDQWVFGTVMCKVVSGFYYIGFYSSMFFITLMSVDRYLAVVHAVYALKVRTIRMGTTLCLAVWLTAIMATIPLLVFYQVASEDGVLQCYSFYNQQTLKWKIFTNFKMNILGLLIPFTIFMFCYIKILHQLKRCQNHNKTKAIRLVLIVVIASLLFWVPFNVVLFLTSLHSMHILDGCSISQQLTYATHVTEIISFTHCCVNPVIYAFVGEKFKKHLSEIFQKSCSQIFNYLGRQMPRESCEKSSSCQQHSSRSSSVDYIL
Protocol: as §1

T1 sequence (P07766 23-207, chain 1 of 4): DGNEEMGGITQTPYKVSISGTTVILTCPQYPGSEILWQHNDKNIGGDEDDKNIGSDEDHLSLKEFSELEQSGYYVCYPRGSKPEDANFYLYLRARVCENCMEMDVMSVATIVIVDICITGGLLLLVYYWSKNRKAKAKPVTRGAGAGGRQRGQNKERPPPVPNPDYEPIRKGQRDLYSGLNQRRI
T1 sequence (P09693 23-182, chain 2 of 4, further chain): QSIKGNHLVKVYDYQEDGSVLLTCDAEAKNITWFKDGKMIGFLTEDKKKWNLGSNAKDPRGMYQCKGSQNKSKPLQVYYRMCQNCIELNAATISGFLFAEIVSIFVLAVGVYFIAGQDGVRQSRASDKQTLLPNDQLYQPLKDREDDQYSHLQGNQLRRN
T1 sequence (P04234 22-171, chain 3 of 4, further chain): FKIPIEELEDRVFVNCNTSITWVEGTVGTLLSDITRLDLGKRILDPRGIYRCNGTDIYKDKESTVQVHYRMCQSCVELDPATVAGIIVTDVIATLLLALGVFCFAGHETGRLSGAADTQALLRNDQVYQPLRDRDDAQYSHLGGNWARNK
T1 sequence (P20963 22-164, chain 4 of 4, further chain): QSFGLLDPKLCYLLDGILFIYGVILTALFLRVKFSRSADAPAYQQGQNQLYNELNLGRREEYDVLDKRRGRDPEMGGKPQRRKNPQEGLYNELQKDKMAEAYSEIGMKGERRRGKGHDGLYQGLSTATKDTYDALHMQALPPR

B1: ABC752 (ABC752_hCCR8/hCD3_673, anti-hCCR8 x anti-hCD3 BsAb in ABC673 format) (bispecific antibody, human IgG1, kappa, N297A)
heavy 1: EVQLVESGGGLVQPGGSLRLSCAASGFPFNTFAMNWVRQAPGKGLEWLARIRSKSNNYATYYADSVKDRFTISRDNAKRSLYLQMNSLRAEDTAVYYCVRGKENNYGYAMDYWGQGTTVTVSSASTKGQVKPEAWLSHCPSPGPGHLQLVCHVSGFYPKPVWVMWMRGEQEQQGTQRSEILPSADGTWYLRATLEVAAGEAADLSCRVKHSSLEGQDIVLYWEGSDKTHTCPPCPAPELLGGPSVFLFPPKPKDTLMISRTPEVTCVVVDVSHEDPEVKFNWYVDGVEVHNAKTKPREEQYASTYRVVSVLTVLHQDWLNGKEYKCKVSNKALPAPIEKTISKAKGQPREPQVCTLPPSREEMTKNQVSLSCAVKGFYPSDIAVEWESNGQPENNYKTTPPVLDSDGSFFLVSKLTVDKSRWQQGNVFSCSVMHEALHNHYTQKSLSLSPGK
light 1: not shown
heavy 2: not shown
light 2: not shown
**Q.** With B1 as the binder, how does the EC50 [1] read?
**A.** 2.57 nM

**Q.** What about the EC50 [2] of the same binder?
**A.** 2.9 nM

B2: ABC753 (ABC753_hCCR8/hCD3_675, anti-hCCR8 x anti-hCD3 BsAb in ABC675 format) (bispecific antibody, human IgG1, kappa, N297A)
heavy 1: EVQLVESGGGLVQPGGSLRLSCAASGFPFNTFAMNWVRQAPGKGLEWLARIRSKSNNYATYYADSVKDRFTISRDNAKRSLYLQMNSLRAEDTAVYYCVRGKENNYGYAMDYWGQGTTVTVSSASTKGQVKPEAWLSSCPSPGPGRLQLVCHVSGFYPKPVWVMWMRGEQEQQGTQLSEILPNANWTWYLRATLDVADGEAAGLSCRVKHSSLEGQDIILYWRGSGDKTHTCPPCPAPELLGGPSVFLFPPKPKDTLMISRTPEVTCVVVDVSHEDPEVKFNWYVDGVEVHNAKTKPREEQYASTYRVVSVLTVLHQDWLNGKEYKCKVSNKALPAPIEKTISKAKGQPREPQVCTLPPSREEMTKNQVSLSCAVKGFYPSDIAVEWESNGQPENNYKTTPPVLDSDGSFFLVSKLTVDKSRWQQGNVFSCSVMHEALHNHYTQKSLSLSPGK
light 1: not shown
heavy 2: not shown
light 2: not shown
**Q.** Which results are given for B2?
**A.** EC50 [1]: 2.09 nM; EC50 [2]: 2.14 nM

B3: ABC138 (anti-hCCR8 parental antibody) (antibody, human IgG1, kappa, V domains shown)
VH: EVQLVESGGGLVQPGGSLRLSCAASGFPFNTFAMNWVRQAPGKGLEWLARIRSKSNNYATYYADSVKDRFTISRDNAKRSLYLQMNSLRAEDTAVYYCVRGKENNYGYAMDYWGQGTTVTVSS
VL: DIVMTQSPLSLPVTPGEPASISCRSSKSLLHSNANTYLYWFLQKPGQSPQLLIYRMSNLASGVPDRFSGSGSGTDFTLKISRVEAEDVGVYYCMQHVEYPFTFGGGTKLEIKR
**Q.** Which EC50 [2] does the source give for B3 here?
**A.** 0.34 nM
